Data set [1] relates to HeLa Kyoto. Kind of data set: thermal stability score vs G1/S (z-score of summed log2 fold changes over temperatures); higher = more thermally stable than in G1/S.
Data set [2] deals with HeLa Kyoto. Kind of data set: solubility in G1/S (NP-40 vs SDS abundance) (log2 ratio); higher = more soluble. The following applies: cell cycle stage: G1/S.
In data set [3] the test system is HeLa Kyoto. The experiment in a line: melting temperature (median over replicates), in situ; higher = more thermally stable.
The test system of data set [4] is HeLa Kyoto. The experiment in a line: solubility change mitosis vs G1/S (difference of NP-40 vs SDS log2 ratios) (log2 ratio difference); higher = more soluble in mitosis.
Setting [5] is: cell cycle stage: early G1 (4.5 h after nocodazole release).
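Throughout, for melting temperature (median over replicates), in situ: HeLa Kyoto cells synchronized by double thymidine or nocodazole block, proteins quantified by TMT10plex mass spectrometry, three independent biological replicates.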
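Throughout, for solubility change mitosis vs G1/S (difference of NP-40 vs SDS log2 ratios): synchronized HeLa Kyoto cells (double thymidine block for G1/S, nocodazole release for mitosis), protein amounts in NP-40 versus SDS lysates quantified by mass spectrometry, three biological replicates.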
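Throughout, for solubility in G1/S (NP-40 vs SDS abundance): HeLa Kyoto cells arrested at G1/S by double thymidine block, proteins quantified by TMT10plex mass spectrometry in mild NP-40 versus SDS extracts, three biological replicates.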
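Throughout, for thermal stability score vs G1/S (z-score of summed log2 fold changes over temperatures): synchronized HeLa Kyoto cells, proteins quantified by TMT10plex mass spectrometry, three biological replicates, mitosis taken 0.5 h after nocodazole release, G1/S directly after double thymidine block.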

In the case of “MSSSVRRKGKPGKGGGKGSSRGGRGGRSHASKSHGSGGGGGGGGGGGGGNRKASSRIWDDGDDFCIFSESRRPSRPSNSNISKGESRPKWKPKAKVPLQTLHMTSENQEKVKALLRDLQEQDADAGSERGLSGEEEDDEPDCCNDERYWPAGQEPSLVPDLDPLEYAGLASVEPYVPEFTVSPFAVQKLSRYGFNTERCQAVLRMCDGDVGASLEHLLTQCFSETFGERMKISEAVNQISLDECMEQRQEEAFALKSICGEKFIERIQNRVWTIGLELEYLTSRFRKSKPKESTKNVQENSLEICKFYLKGNCKFGSKCRFKHEVPPNQIVGRIERSVDDSHLNAIEDASFLYELEIRFSKDHKYPYQAPLVAFYSTNENLPLACRLHISEFLYDKALTFAETSEPVVYSLITLLEEESEIVKLLTNTHHKYSDPPVNFLPVPSRTRINNPACHKTVIPNNSFVSNQIPEVEKASESEESDEDDGPAPVIVENESYVNLKKKISKRYDWQAKSVHAENGKICKQFRMKQASRQFQSILQERQSLPAWEERETILNLLRKHQVVVISGMTGCGKTTQIPQFILDDSLNGPPEKVANIICTQPRRISAISVAERVAKERAERVGLTVGYQIRLESVKSSATRLLYCTTGVLLRRLEGDTALQGVSHIIVDEVHERTEESDFLLLVLKDIVSQRPGLQVILMSATLNAELFSDYFNSCPVITIPGRTFPVDQFFLEDAIAVTRYVLQDGSPYMRSMKQISKEKLKARRNRTAFEEVEEDLRLSLHLQDQDSVKDAVPDQQLDFKQLLARYKGVSKSVIKTMSIMDFEKVNLELIEALLEWIVDGKHSYPPGAILVFLPGLAEIKMLYEQLQSNSLFNNRRSNRCVIHPLHSSLSSEEQQAVFVKPPAGVTKIIISTNIAETSITIDDVVYVIDSGKMKEKRYDASKGMESLEDTFVSQANALQRKGRAGRVASGVCFHLFTSHHYNHQLLKQQLPEIQRVPLEQLCLRIKILEMFSAHNLQSVFSRLIEPPHTDSLRASKIRLRDLGALTPDERLTPLGYHLASLPVDVRIGKLMLFGSIFRCLDPALTIAASLAFKSPFVSPWDKKEEANQKKLEFAFANSDYLALLQAYKGWQLSTKEGVRASYNYCRQNFLSGRVLQEMASLKRQFTELLSDIGFAREGLRAREIEKRAQGGDGVLDATGEEANSNAENPKLISAMLCAALYPNVVQVKSPEGKFQKTSTGAVRMQPKSAELKFVTKNDGYVHIHPSSVNYQVRHFDSPYLLYHEKIKTSRVFIRDCSMVSVYPLVLFGGGQVNVQLQRGEFVVSLDDGWIRFVAASHQVAELVKELRCELDQLLQDKIKNPSIDLCTCPRGSRIISTIVKLVTTQ [DHX57]”, the thermal stability score in the data set with HeLa Kyoto [1] (setting [5]) is -0.0848; in the data set on HeLa Kyoto [1] (cell cycle stage: mitosis) it was -0.271. Besides, the “solubility in G1/S (log2)” value in the data set on HeLa Kyoto [2] is -0.884. Further, the melting temperature in the data set on HeLa Kyoto [3] (cell cycle stage: G1/S) amounted to 53 °C; in the data set with HeLa Kyoto [3] (cell cycle stage: mitosis) it was 51.9 °C. Further, in the data set with HeLa Kyoto [4], the “solubility change mitosis (log2)” value came out at 0.223.
For the sequence “MTAPCSQPAQLPGRRQLGLVPFPPPPPRTPLLWLLLLLLAAVAPARGWESGDLELFDLVEEVQLNFYQFLGVQQDASSADIRKAYRKLSLTLHPDKNKDENAETQFRQLVAIYEVLKDDERRQRYDDILINGLPDWRQPVFYYRRVRKMSNAELALLLFIILTVGHYAVVWSIYLEKQLDELLSRKKREKKKKTGSKSVDVSKLGASEKNERLLMKPQWHDLLPCKLGIWFCLTLKALPHLIQDAGQFYAKYKETRLKEKEDALTRTELETLQKQKKVKKPKPEFPVYTPLETTYIQSYDHGTSIEEIEEQMDDWLENRNRTQKKQAPEWTEEDLSQLTRSMVKFPGGTPGRWEKIAHELGRSVTDVTTKAKQLKDSVTCSPGMVRLSELKSTVQNSRPIKTATTLPDDMITQREDAEGVAAEEEQEGDSGEQETGATDARPRRRKPARLLEATAKPEPEEKSRAKRQKDFDIAEQNESSDEESLRKERARSAEEPWTQNQQKLLELALQQYPRGSSDRWDKIARCVPSKSKEDCIARYKLLVELVQKKKQAKS [DNAJC1]”, the thermal stability score in the data set on HeLa Kyoto [1] (setting [5]) and in the data set on HeLa Kyoto [1] (cell cycle stage: mitosis) was 1.18 each time. The “solubility in G1/S (log2)” value in the data set on HeLa Kyoto [2] worked out at 0.161. Further, the melting temperature in the data set on HeLa Kyoto [3] (cell cycle stage: G1/S) and in the data set on HeLa Kyoto [3] (cell cycle stage: mitosis) was 52.8 °C throughout. Also, the “solubility change mitosis (log2)” value with HeLa Kyoto [4] was -0.0698.
For the sequence “MREIVHIQAGQCGNQIGAKFWEVISDEHGIDPTGTYHGDSDLQLDRISVYYNEATGGKYVPRAILVDLEPGTMDSVRSGPFGQIFRPDNFVFGQSGAGNNWAKGHYTEGAELVDSVLDVVRKEAESCDCLQGFQLTHSLGGGTGSGMGTLLISKIREEYPDRIMNTFSVVPSPKVSDTVVEPYNATLSVHQLVENTDETYCIDNEALYDICFRTLKLTTPTYGDLNHLVSATMSGVTTCLRFPGQLNADLRKLAVNMVPFPRLHFFMPGFAPLTSRGSQQYRALTVPELTQQVFDAKNMMAACDPRHGRYLTVAAVFRGRMSMKEVDEQMLNVQNKNSSYFVEWIPNNVKTAVCDIPPRGLKMAVTFIGNSTAIQELFKRISEQFTAMFRRKAFLHWYTGEGMDEMEFTEAESNMNDLVSEYQQYQDATAEEEEDFGEEAEEEA [TUBB]”, the thermal stability score is 0.696 in the data set with HeLa Kyoto [1] (setting [5]) and -1.83 in the data set with HeLa Kyoto [1] (cell cycle stage: mitosis). Further, the “solubility in G1/S (log2)” value in the data set with HeLa Kyoto [2] was 0.245. In addition, the melting temperature in the data set with HeLa Kyoto [3] (cell cycle stage: G1/S) stood at 56.4 °C; in the data set with HeLa Kyoto [3] (cell cycle stage: mitosis), 54.4 °C. The “solubility change mitosis (log2)” value in the data set on HeLa Kyoto [4] is -0.117.
Consider “MTSMTQSLREVIKAMTKARNFERVLGKITLVSAAPGKVICEMKVEEEHTNAIGTLHGGLTATLVDNISTMALLCTERGAPGVSVDMNITYMSPAKLGEDIVITAHVLKQGKTLAFTSVDLTNKATGKLIAQGRHTKHLGN [ACOT13]”, for which the thermal stability score in the data set with HeLa Kyoto [1] (setting [5]) is -1.62; in the data set on HeLa Kyoto [1] (cell cycle stage: mitosis), -1.82. Besides, in the data set with HeLa Kyoto [2], the “solubility in G1/S (log2)” value came out at 0.372. Also, the figures for the melting temperature in the data set with HeLa Kyoto [3] (cell cycle stage: G1/S) and with HeLa Kyoto [3] (cell cycle stage: mitosis) were 56.4 °C and 57.7 °C, respectively. In addition, in the data set on HeLa Kyoto [4], the “solubility change mitosis (log2)” value is -0.0848.
Take “MSLTSSSSVRVEWIAAVTIAAGTAAIGYLAYKRFYVKDHRNKAMINLHIQKDNPKIVHAFDMEDLGDKAVYCRCWRSKKFPFCDGAHTKHNEETGDNVGPLIIKKKET [CISD1]”: the thermal stability score in the data set on HeLa Kyoto [1] (setting [5]) was -0.277; with HeLa Kyoto [1] (cell cycle stage: mitosis), -1.59. The “solubility in G1/S (log2)” value in the data set with HeLa Kyoto [2] amounted to 0.633. Also, the melting temperature came to 57.1 °C with HeLa Kyoto [3] (cell cycle stage: G1/S) and 55.3 °C with HeLa Kyoto [3] (cell cycle stage: mitosis). Moreover, in the data set with HeLa Kyoto [4], the “solubility change mitosis (log2)” value was 0.0262.

The values above are taken from the supplement of paper PMC5998384.
